In paper PMC10003557 (International Journal of Molecular Sciences, 2023):
Where a chain is given by its changes, count along the chain named.

B1: P5E1-A6 (hIgG1) (antibody, V domains shown)
VH: EVQLLESGGGLVQPGGSLRLSCAASGFTFTSTAMSWVRQAPGKGLEWVSGIYGRGSTRYADSVKGRFTISRDNSKNTLYLQMNSLRAEDTAVYYCARGGSWFDPWGQGTLVTVSS
VL: not shown
B2: P5A10-G2 (hIgG1) (antibody, V domains shown)
VH: EVQLLESGGGLVQPGGSLRLSCAASGFTSSNTWMSWVRQAPGKGLEWVSGIDGRGGSTYYADSVKGRFTISRDNSKNTLYLQMNSLRAEDTAVYYCATDSSTQPWYFDLWGRGTLVTVSS
VL: EIVLTQSPATLSLSPGERATLSCRASQSVSSNLAWYQQKPGQAPRLLIYDASNRATGIPARFSGSGSGTDFTLTISSLEPEDFAVYYCQQREREPITFGQGTKVEIK
B3: P5A10-G4 (hIgG1) (antibody, V domains shown)
VH: EVQLLESGGGLVQPGGSLRLSCAASGFTFSSYWMSWVRQAPGKGLEWVSGISGSGRRAFGGSTYYADSVKGRFTISRDNSKNTLYLQMNSLRAEDTAVYYCATDSSTQPWYFDLWGRGTLVTVSS
VL: B2 VL
B4: P5A10 (hIgG1) (antibody, V domains shown)
VH: B2 VH with S29F, N31S, T32S, W33A, D52Y
VL: B2 VL
B5: P5E1 (hIgG1) (antibody, V domains shown)
VH: EVQLLESGGGLVQPGGSLRLSCAASGFTFSDSAMSWVRQAPGKGLEWVSGIYGRGGYTYYADSVKGRFTISRDNSKNTLYLQMNSLRAEDTAVYYCARGGSWFDPWGQGTLVTVSS
VL: not shown

Key:
[1] = biological target: T1, SARS-CoV-2 receptor-binding domain (RBD) wild-type (WT) (SARS-CoV-2 (Wuhan, WT), UniProt P0DTC2); experiment: cell-based or functional assay
[2] = biological target: T1, SARS-CoV-2 receptor-binding domain …; experiment: bead-based flow cytometry (iQue3) blocking assay; conditions: both partners purified
[3] = biological target: T2, biotinylated RBD protein (SPD-C82E9, Acro Biosystems) (SARS-CoV-2 (WT), UniProt P0DTC2); experiment: bead-based flow cytometry (iQue3, Qbeads) competition assay; conditions: both partners purified
T2 construct: also called Biotinylated RBD WT; RBD-Qbeads

[4] = biological target: T1, SARS-CoV-2 receptor-binding domain …; experiment: SPR; Biacore; antibodies captured on the chip (Protein A CM5 chip by the methods, anti-IgG antibody by the results), RBD WT flown over; 1:1 Langmuir fit; conditions: both partners purified
[5] = biological target: T1, SARS-CoV-2 receptor-binding domain …; experiment: ELISA; binding ELISA of purified hIgG1 on RBD; EC50; conditions: both partners purified
[6] = biological target: T2, biotinylated RBD protein (SPD-C82E9, …); experiment: bead-based flow cytometry (iQue3, Qbeads) competition assay; conditions: both partners purified; remark: listed apart in the source
[7] = biological target: T1, SARS-CoV-2 receptor-binding domain …; experiment: SPR; Biacore; antibodies captured on the chip (Protein A CM5 chip by the methods, anti-IgG antibody by the results), RBD WT flown over; 1:1 Langmuir fit; conditions: both partners purified; remark: listed apart in the source
[8] = biological target: T1, SARS-CoV-2 receptor-binding domain …; experiment: bead-based flow cytometry (iQue3) blocking assay; conditions: both partners purified; remark: listed apart in the source

| Binder | PRNT: authentic SARS-CoV-2 on Vero E6 cells, NC50; pair blocked: RBD with hACE-2 [1] | IC50 [2] | IC50 [3] | Kd [4] | koff [4] | kon [4] | EC50 [5] | IC50 [6] | Kd [7] | koff [7] | kon [7] | IC50 [8] |
| --- | --- | --- | --- | --- | --- | --- | --- | --- | --- | --- | --- | --- |
| B1 | 43.9 nM | 0.61 nM | 0.06 nM | 0.89 nM | 0.000527 s⁻¹ | 588000 M⁻¹ s⁻¹ | – | – | – | – | – | – |
| B2 | 61.1 nM | 1.18 nM | 1.23 nM | 0.39 nM | 0.000578 s⁻¹ | 1.49e+06 M⁻¹ s⁻¹ | – | – | – | – | – | – |
| B3 | 10.4 nM | 0.78 nM | 0.12 nM | 0.14 nM | 0.000148 s⁻¹ | 1.09e+06 M⁻¹ s⁻¹ | – | – | – | – | – | – |
| B4 | – | – | – | – | – | – | 16.9 nM | 2.34 nM | 28.8 nM | 0.00367 s⁻¹ | 127000 M⁻¹ s⁻¹ | – |
| B5 | – | – | – | – | – | – | 0.97 nM | 2.15 nM | 27.1 nM | 0.00433 s⁻¹ | 160000 M⁻¹ s⁻¹ | 2.63 nM |
